B1: BBSome complex member BBS5 (Homo sapiens), Q8N3I7 (parent)
chain: MSVLDALWEDRDVRFDLSAQQMKTRPGEVLIDCLDSIEDTKGNNGDRGRLLVTNLRILWHSLALSRVNVSVGYNCILNITTRTANSKLRGQTEALYILTKCNSTRFEFIFTNLVPGSPRLFTSVMAVHRAYETSKMYRDFKLRSALIQNKQLRLLPQEHVYDKINGVWNLSSDQGNLGTFFITNVRIVWHANMNDSFNVSIPYLQIRSIKIRDSKFGLALVIESSQQSGGYVLGFKIDPVEKLQESVKEINSLHKVYSASPIFGVDYEMEEKPQPLEALTVEQIQDDVEIDSDGHTDAFVAYFADGNKQQDREPVFSEELGLAIEKLKDGFTLQGLWEVMS
partner: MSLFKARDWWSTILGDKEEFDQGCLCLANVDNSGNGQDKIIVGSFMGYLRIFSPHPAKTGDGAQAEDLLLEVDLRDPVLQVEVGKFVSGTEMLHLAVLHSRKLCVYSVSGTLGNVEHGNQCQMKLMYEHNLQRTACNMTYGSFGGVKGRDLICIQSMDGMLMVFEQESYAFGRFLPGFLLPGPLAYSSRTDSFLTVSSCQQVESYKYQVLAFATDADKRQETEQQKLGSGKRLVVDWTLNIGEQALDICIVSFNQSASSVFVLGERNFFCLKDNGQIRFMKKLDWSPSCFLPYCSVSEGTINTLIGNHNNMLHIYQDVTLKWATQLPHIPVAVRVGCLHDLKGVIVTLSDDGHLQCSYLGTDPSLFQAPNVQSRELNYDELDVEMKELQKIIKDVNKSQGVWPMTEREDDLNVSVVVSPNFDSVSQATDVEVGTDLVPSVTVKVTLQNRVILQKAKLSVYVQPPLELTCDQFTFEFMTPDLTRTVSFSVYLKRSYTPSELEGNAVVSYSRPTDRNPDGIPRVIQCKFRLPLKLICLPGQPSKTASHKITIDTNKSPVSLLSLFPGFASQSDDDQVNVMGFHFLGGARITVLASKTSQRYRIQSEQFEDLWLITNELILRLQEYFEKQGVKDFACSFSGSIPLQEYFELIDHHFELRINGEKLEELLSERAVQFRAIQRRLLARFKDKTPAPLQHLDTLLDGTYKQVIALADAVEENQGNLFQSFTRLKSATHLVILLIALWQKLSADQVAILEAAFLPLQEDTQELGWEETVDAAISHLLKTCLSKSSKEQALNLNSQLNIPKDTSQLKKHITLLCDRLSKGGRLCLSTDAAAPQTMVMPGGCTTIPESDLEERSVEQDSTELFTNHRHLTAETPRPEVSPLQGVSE

Variants of: B1
Settings: with pthb1_human BBS9, Q3SYG4

effect of a mutation on the interaction	Variant
with no effect	Q148E
with no effect	Q148A
with no effect	Q148K
with no effect	Y161K
with no effect	Y161E
with no effect	Y161A
with no effect	V167K
with no effect	V167A
with no effect	V167E
with no effect	L152A
with no effect	L152E
with no effect	L152K
with no effect	F180A
with no effect	F180E
disrupting interaction strength	F180K
with no effect	Q157K
with no effect	Q157E
with no effect	Q157A
with no effect	V185E
with no effect	V185K
with no effect	V185A
with no effect	Q174E
with no effect	Q174A

effect of a mutation on the interaction	Variant
with no effect	Q174K
with no effect	S144A
with no effect	S144E
with no effect	S144K
with no effect	K163A
with no effect	K163E
with no effect	L170K
with no effect	L170A
with no effect	L170E
with no effect	N169A
with no effect	N169K
with no effect	N169E
with no effect	D162A
with no effect	D162E
with no effect	D162K
with no effect	I201A
with no effect	I201K
with no effect	I201E
with no effect	L155E
with no effect	L155K
with no effect	L155A
with no effect	W168A
with no effect	W168K

effect of a mutation on the interaction	Variant
with no effect	W168E
with no effect	N149A
with no effect	N149E
with no effect	N149K
with no effect	N192K
with no effect	N192E
with no effect	N192A
with no effect	G166A
with no effect	G166E
with no effect	G166K
with no effect	Q151A
with no effect	Q151K
with no effect	Q151E
with no effect	G175A
with no effect	G175K
with no effect	G175E
with no effect	N176A
with no effect	N176E
with no effect	N176K
disrupting interaction strength	G178R
with no effect	G178A
disrupting interaction strength	G178E
with no effect	G178K

effect of a mutation on the interaction	Variant
with no effect	L154A
with no effect	L154E
with no effect	L154K
with no effect	W189K
with no effect	W189E
with no effect	W189A
with no effect	I182E
with no effect	I182A
disrupting interaction strength	I182K
with no effect	H159A
with no effect	H159K
with no effect	H159E
with no effect	Y203A
with no effect	Y203E
with no effect	H190K
with no effect	H190A
with no effect	H190E
with no effect	F181E
with no effect	F181A
with no effect	F181K
with no effect	D173E
with no effect	D173K
with no effect	D173A

effect of a mutation on the interaction	Variant
with no effect	N198K
with no effect	N198E
with no effect	N198A
with no effect	V188E
with no effect	V188K
with no effect	V188A
with no effect	S172A
with no effect	S172K
with no effect	S172E
with no effect	R153K
with no effect	R153E
with no effect	R153A
with no effect	N165A
with no effect	N165K
with no effect	N165E
with no effect	L177K
with no effect	L177A
with no effect	L177E
with no effect	S196E
with no effect	S196A
with no effect	S196K
with no effect	K150A
with no effect	K150E

effect of a mutation on the interaction	Variant
with no effect	V199K
with no effect	V199E
with no effect	V199A
with no effect	E158A
with no effect	E158K
with no effect	N184K
with no effect	N184A
disrupting interaction strength	N184E
with no effect	S171A
with no effect	S171E
with no effect	S171K
with no effect	P202A
with no effect	P202E
with no effect	P202K
with no effect	N194E
with no effect	N194K
with no effect	N194A
with no effect	T179E
with no effect	T179A
with no effect	T179K
with no effect	R143K
with no effect	R143A
with no effect	R143E

effect of a mutation on the interaction	Variant
with no effect	A191K
with no effect	A191E
with no effect	F197E
with no effect	F197A
with no effect	F197K
with no effect	P156K
with no effect	P156E
with no effect	P156A
with no effect	A145K
with no effect	A145E
disrupting interaction strength	A145T
with no effect	V160A
with no effect	V160E
with no effect	V160K
with no effect	T183E
with no effect	T183A
with no effect	T183K
with no effect	I164K
with no effect	I164E
with no effect	I164A
with no effect	K141E
with no effect	K141A
with no effect	I187E

effect of a mutation on the interaction	Variant
with no effect	I187K
with no effect	I187A
with no effect	D195E
with no effect	D195K
with no effect	D195A
with no effect	M193K
with no effect	M193A
with no effect	M193E
with no effect	L146K
with no effect	L146E
with no effect	L146A
with no effect	S200A
with no effect	S200E
with no effect	S200K
disrupting interaction strength	R186K
with no effect	R186A
disrupting interaction strength	R186E
with no effect	L142E
with no effect	L142K
with no effect	L142A
with no effect	I147E
with no effect	I147K
with no effect	I147A
